Source: patent US20230295310A1 (ABCELLERA BIOLOGICS, published 2023)
Positions count from the first letter of the chain named.

B1: mAb 251 (antibody, V domains shown)
VH: EVQILESGGGLVQPGGSLRLSCVASGFTFRSYVMSWVRRAPGRGLEWVSGISASGGNTYYADSVKGRFTISRDNSKNTLFLQMNGLRAEDTAVYYCAKLFSYYYYFMDVWGKGTTVTVSS
VL: SYELTQPLSVSVALGQTARITCGGNNIGSKDVHWYQQKPGQAPVLVIYRDSNRPSGIPERFSGSNSGNTATLTISGAQAGDEADYYCQVWDRRTAVFGGGTQLTAL
notes: VH and VL only
B2: mAb 297 (antibody, V domains shown)
VH: EVQLLESGGGLVQPGGSLRLSCAASGFTFSSYAMNWVRQAPGKGLEWVSIISGGRRDDITYYAASVKGRFTISRDNSKNTLYLQMNSLRAEDTAVYYCAKMYNYYYYYIDVWGKGTTVTVSS
VL: B1 VL with R19K, G76R, R92S, R93N
notes: VH and VL only
B3: mAb 263 (antibody, V domains shown)
VH: EVQLLESGGGLVQPGGSLRLSCTPSGITFNNYAMTWVRQAPGKGLEWVSGISVSGGSTYYADSVMGRFTISRDSSKTLYLQMNSLRAEDTAVYYCAKFHSHYYYYMDVWGKGTTVTVSS
VL: B1 VL with G76R
notes: VH and VL only
B4: mAb 264 (antibody, V domains shown)
VH: EVQLLESGGGLVQPGGSLRLSCVASGFTFRSSSMTWVRQAPGKGLEWVSGIRGSGGRTYDAESVKGRFTISRDNSKNTLYLQMNSLRAEDTAEYYCAKLYDYYNDYMDVWGKGTTVTVSS
VL: B1 VL with D31N, G76R, R92S, R93S
notes: VH and VL only
B5: mAb 252 (antibody, V domains shown)
VH: B1 VH with A53T
VL: B1 VL
notes: VH and VL only
B6: mAb 260 (antibody, V domains shown)
VH: B4 VH with T35A, T69I, N74T, A88G, Y95F
VL: B1 VL with D31N, G76R, R92S, R93S
notes: VH and VL only
B7: mAb 303 (antibody, V domains shown)
VH: B2 VH with Q3H, V48I, D57S, D58G, Y82D
VL: B1 VL with G76R, R92S, R93N
notes: VH and VL only
B8: mAb 296 (antibody, V domains shown)
VH: EVQLLESGGGLVQPGGSLRLSCAASGFTFSSYAMSWVRQAPGKGLEWVSAISGSGGTTYYTDSVKGRFTISRDNSKNTLYLQMNSLRAEDTAVYYCAKKYSYYYYYMDVWGKGTTVTVSS
VL: B1 VL with D31N, G76R, R92S, R93S
notes: VH and VL only
B9: mAb 261 (antibody, V domains shown)
VH: EVQLLESGGGFMQPGGSLRLSCAVSGFTFRTSSMAWVRQAPGKGLEWVSGIRGSGGRTYDAESVKGRFTISRDISKNTLYLQMNNLRAEDTAEYYCAKLYDYYNDFMDVWGKGTTVIVSA
VL: B1 VL with D31N, G76R, R92S, R93S
notes: VH and VL only
B10: mAb 262 (antibody, V domains shown)
VH: B4 VH with Q3R, V23A, T35A, A40D, S49T, E62D
VL: B1 VL with D31N, G76R, R92S, R93S
notes: VH and VL only
B11: mAb 292 (antibody, V domains shown)
VH: EVQLLESGGGLVQPGGSRRLSCAASGFTFSTYAMSWVRQAPGKGLEWVSVINGRGDDTNYADSVKGRFTISRDNSKNILFLQMNSLRAEDTAVYYCAKKYSYYYYYMDVWGKGTTVTVSS
VL: B1 VL with G76R, R92S
notes: VH and VL only
B12: mAb 259 (antibody, V domains shown)
VH: B4 VH with Q3L, V23A, N74I, L86V
VL: B1 VL with D31N, G76R, R92S, R93S
notes: VH and VL only
B13: mAb 72 (antibody, V domains shown)
VH: EVQLVDSGGGLVQPGGSLRLSCAASGFTFSSYWMSWVRQAPGKGLEWVANIKQDGSEKYYVDSVKGRFTISRDNVKNSLSLEMNSLRAEDTALYYCARDESSSWYWYFDLWGRGTLVTVSS
VL: DIQMTQSPSTLSASVGDRVTITCRASQSISKWLAWYQQKPGKAPKLLIYKASSLENGVPSRFSGSGSGTEFTLTISSLQPDDFATYYCQQYSSYSRTFGQGTKVEIK
notes: VH and VL only
B14: mAb 78 (antibody, V domains shown)
VH: B13 VH with D6E, V75A, S80Y, E82Q, L93V, E100N, S102P, W104F
VL: B13 VL with I29L, K31R, N56S, S92Y, S93T
notes: VH and VL only
B15: mAb 273 (antibody, V domains shown)
VH: EVQLVESGGGLVQPGESLKLSCTASGFTFSVSAIHWVRQASGKGLEWVGRIRSKANSYATAYVASVKGRFTLSRDDSKNTAYLQMNSLKTEDTAVYYCSSYYFVSGTYYNHWGQGTLVTVSS
VL: DIQMTQSPSSLSASVGDRVTITCRASQGIRYDLGWYQQKPGRAPKRLIHSVSSLQSGVPSRFSGSGSGTEFTLTISSLQPEDFATYYCLQHNVNPCTFGQGTKLEIK
notes: VH and VL only
B16: mAb 99 (antibody, V domains shown)
VH: QGQLVESGGGVVQPGRSLRLSCAASGFTFRGFGMHWVRQAPGKGLEWVAIIYYDGKNKYYADSVKGRFTISRDNSKNTLYLQMNSLRAEDTAVYYCAKGGGYNWFDPWGQGTLVTVSS
VL: DIQMTQSPSSLSASVGDRVTITCRASQSISTYLNWYQQKPGKAPKLLIYSASSLQSGVPSRFSGSGSGTDFTLTISNLQPEDFAIYYCQRSYSPPFTFGPGTKLDIR
notes: VH and VL only
B17: mAb 95 (antibody, V domains shown)
VH: B16 VH with G2A, Q3H, A23S, R30S, F32Y, I50L, Y53F, K56R, K98R
VL: DIQMTQSPSSLSASVGDRVTITCRASQSINNYLSWYQQKPGKAPKLLIYLASNLQSGVPSRFSGSGSGTDFTLTISSLQPEDFATYYCQLSYRSPFTFGPGTKVDVK
notes: VH and VL only
B18: mAb 93 (antibody, V domains shown)
VH: B16 VH with G2V, F32Y, D54N, K56N, K98R
VL: B16 VL with T31N, K39E, S50T, D70A, N77S, Y92S, R107K
notes: VH and VL only
B19: mAb 96 (antibody, V domains shown)
VH: B16 VH with G2A, Q3H, A23S, R30S, F32Y, A49S, I50L, Y53F, K56R, K98R
VL: B17 VL with S65N
notes: VH and VL only
B20: mAb 97 (antibody, V domains shown)
VH: B16 VH with F32Y, S85N, A88V, K98R
VL: B16 VL with V15I, T31N
notes: VH and VL only
B21: mAb 98 (antibody, V domains shown)
VH: B16 VH with G2V, Q3H, G10D, A23S, R30S, F32Y, I50L, Y53F, K56R, K98R
VL: B17 VL with S34N, N53S, F83L, R93S
notes: VH and VL only
B22: mAb 101 (antibody, V domains shown)
VH: B16 VH with T78M
VL: B16 VL
notes: VH and VL only
B23: mAb 100 (antibody, V domains shown)
VH: B16 VH with G2V, A23V, F32Y, A88V, V93L, K98R
VL: B16 VL with S50T, D70V, N77S, K103R, R107K
notes: VH and VL only
B24: mAb 94 (antibody, V domains shown)
VH: B16 VH with G2V, Q3H, A23S, R30S, F32Y, I50L, Y53F, K56R, K98R
VL: B17 VL with N30S, S34N, N53S, S76N, T85S, R93S, K107N
notes: VH and VL only
B25: mAb 106 (antibody, V domains shown)
VH: QVQLVESGGGVVQPGRSLRLSCAASGFTFRSYGMHWVRQAPGKGLEWVAIIWYNGNKKDYVDSVKGRFTISRDNSKNTLYLQMNSLRAEDTALYYCARGPGYNWFDPWGQGTLVTVSS
VL: DIQMTQSPPSLSASVGDRVTITCRASQRISSYLNWYQQKPGKAPKLLIYAASSLQSGVPSRFSGSGSGTDFTLTISSLQPEDFATYYCQQSDSFPLTFGGGTKVEII
notes: VH and VL only
B26: mAb 110 (antibody, V domains shown)
VH: B25 VH with T78M
VL: B25 VL with K39R, S91T
notes: VH and VL only
B27: mAb 276 (antibody, V domains shown)
VH: EVQLVESGGGLVQPGGSLRLSCAASGIPFSTYSMNWVRQAPGKGLEWVSYISGSSRTIYYADSVKGRFTISRDNAKKLLFLQMNSLRDEDTAVYYCAREGDYYDSSGWAYWGQGTLVTVSS
VL: DIQMTQSPSSLSASVGDRVTITCRASQNIYKYLNWYEQKPGRAPKLLIYTTSNLQSGVPSRFSGSGSGTAFTLIISSLQPEDFATYYCQQSYGSPYTFGQGTKLEIK
notes: VH and VL only
B28: mAb 283 (antibody, V domains shown)
VH: QVHLVQSGAEVKKPGASVRVSCKASGYTFTGYYIHWLRQAPGQGLEWLGWINPNSGGTNYSQKFRGRVTMTRDTSISTAYMELSRLRSDDTAVYYCARDKVWEQQLVGGFDYWGQGTLVTVSS
VL: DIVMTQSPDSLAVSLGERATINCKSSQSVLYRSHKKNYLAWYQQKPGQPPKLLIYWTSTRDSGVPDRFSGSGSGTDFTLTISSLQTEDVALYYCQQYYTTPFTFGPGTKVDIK
notes: VH and VL only
B29: mAb 90 (antibody, V domains shown)
VH: EVQLVESGGGLVQPGGSLKLSCAASGFTFSGSAMHWVRQASGKGLEWVGRIRTKPNSYATSYAASVKDRFTISRDDSKNTAYLQMNSLKTEDTAVYYCIRGELEPWGQGTLVTVSS
VL: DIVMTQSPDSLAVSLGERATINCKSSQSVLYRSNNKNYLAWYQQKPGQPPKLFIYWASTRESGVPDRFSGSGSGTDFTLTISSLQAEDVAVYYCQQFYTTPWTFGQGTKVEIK
notes: VH and VL only

target: T1, human CD3e/d (human, UniProt P07766 23-126; P04234 22-105); assay: SPR (Carterra LSA), mAb on chip
T1 construct: Bought soluble protein; also called hCD3e/d; human CD3/ed (Sino CT038-H2508H)
T1 sequence (P07766 23-126, chain 1 of 2): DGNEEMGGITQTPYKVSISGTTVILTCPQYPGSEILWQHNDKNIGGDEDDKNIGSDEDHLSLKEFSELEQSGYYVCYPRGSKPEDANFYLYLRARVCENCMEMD
T1 sequence (P04234 22-105, chain 2 of 2): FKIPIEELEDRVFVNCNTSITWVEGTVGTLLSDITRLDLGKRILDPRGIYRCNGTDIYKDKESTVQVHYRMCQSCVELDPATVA
Summary of the method: (§1)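 Purified mAbs amine-coupled (EDC/S-NHS) at 10 μg/mL in 10 mM NaOAc pH 4.25 onto an HC-30M chip, with benchmark and negative-control mAbs; analyte flowed over the array. Double-referenced sensorgrams fitted globally to a 1:1 Langmuir model for ka, kd and KD.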

Kd [nM]	Binder
24	B1
66	B2
9	B3
32	B4
30	B5
28	B6
47	B7
370	B8
16	B9
26	B10
91	B11
63	B12
606	B13
283	B14
75	B15
8.92	B16
1.79	B17
47.8	B18
7.73	B19
16.5	B20
9.71	B21
9.06	B22
20.5	B23
1.57	B24
17.1	B25
18.4	B26
15	B27
160	B28
33.3	B29

target: T2, human CD3e/g (human, UniProt P07766 23-126; P09693 23-116); assay: SPR (Carterra LSA), mAb on chip
T2 construct: Bought soluble protein; also called hCD3e/g; human CD3e/g (Acro CDD-C52W4)
T2 sequence (P07766 23-126, chain 1 of 2): as the sequence (P07766 23-126, chain 1 of 2) above
T2 sequence (P09693 23-116, chain 2 of 2): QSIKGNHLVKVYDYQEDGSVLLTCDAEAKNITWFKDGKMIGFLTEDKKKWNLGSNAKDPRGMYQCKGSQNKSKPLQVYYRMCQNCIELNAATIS
Summary of the method: as §1

Kd [nM]	Binder
8.1	B1
18	B2
4.1	B3
7.4	B4
13	B5
4.2	B6
5.5	B7
180	B8
3	B9
10	B10
47	B11
13	B12
394	B13
1260	B14
46	B15
11.6	B16
9.22	B17
35.8	B18
11.9	B19
17.8	B20
11.2	B21
10.9	B22
25.5	B23
7.8	B24
10.6	B25
8.97	B26
9.6	B27
20	B28
41	B29
